This is an account of results in patent US20180194841A1.

The target of assay [1] is Fc receptors (FcR) on U937 cells. The assay can be described thus: cell-based or functional assay.
Assay [2] addresses human CD3 (on Jurkat cells, CD3+, CD20- human T-cell line; on human T cells) (human) (UniProt P07766). In words: FACS, serially diluted antibody on Jurkat cells (CD3+, CD20-).
In assay [3] the target is cynomolgus CD3 (on cynomolgus T cells from PBMCs, "mkT cells") (cynomolgus) (UniProt Q95LI5). The assay can be described thus: FACS, serially diluted antibody on cynomolgus T cells (CD2+CD4+ gate of PBMCs).
cynomolgus CD3 (on cynomolgus T cells from PBMCs, "mkT cells") (cynomolgus), sequence (Q95LI5 22-198, chain 1 of 3): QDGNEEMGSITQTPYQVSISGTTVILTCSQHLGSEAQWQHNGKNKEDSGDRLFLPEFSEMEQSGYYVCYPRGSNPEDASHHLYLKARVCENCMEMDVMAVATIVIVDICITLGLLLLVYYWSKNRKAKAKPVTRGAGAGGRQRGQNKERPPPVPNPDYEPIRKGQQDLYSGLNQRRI
cynomolgus CD3 (on cynomolgus T cells from PBMCs, "mkT cells") (cynomolgus), sequence (Q95LI8 22-171, chain 2 of 3, further chain): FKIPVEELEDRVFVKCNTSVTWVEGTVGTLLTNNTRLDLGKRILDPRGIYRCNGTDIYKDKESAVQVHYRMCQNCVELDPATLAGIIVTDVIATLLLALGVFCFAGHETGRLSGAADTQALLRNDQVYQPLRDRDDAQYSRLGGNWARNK
cynomolgus CD3 (on cynomolgus T cells from PBMCs, "mkT cells") (cynomolgus), sequence (Q95LI7 23-181, chain 3 of 3, further chain): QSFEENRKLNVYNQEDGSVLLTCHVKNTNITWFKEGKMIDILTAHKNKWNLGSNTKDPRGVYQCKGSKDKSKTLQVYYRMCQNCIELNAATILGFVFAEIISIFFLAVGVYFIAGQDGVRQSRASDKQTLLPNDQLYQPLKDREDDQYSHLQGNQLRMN
Assay [4] concerns the target His-tagged cynomolgus FcγRIIA (cynomolgus). In words: SPR steady-state, 25 C, His-tagged FcγR captured, antibody injected.
Assay [5] has as its target His-tagged cynomolgus FcγRIIB (cynomolgus). The assay is described as above.
Assay [6] concerns the target His-tagged cynomolgus FcγRIIIA (cynomolgus) (UniProt Q8SPW2). The description is as above.
In assay [7] the target is His-tagged human FcγRIIA (H131) (human) (UniProt P12318). The assay is described as above.
His-tagged human FcγRIIA (H131) (human), sequence (P12318 36-218 limits assumed): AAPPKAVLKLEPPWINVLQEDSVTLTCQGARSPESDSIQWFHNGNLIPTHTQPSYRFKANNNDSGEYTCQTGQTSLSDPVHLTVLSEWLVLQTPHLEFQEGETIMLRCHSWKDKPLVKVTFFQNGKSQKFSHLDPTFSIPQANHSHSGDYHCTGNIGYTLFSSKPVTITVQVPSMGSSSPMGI
The target of assay [8] is His-tagged human FcγRIIIA (F176) (human) (UniProt P08637). Described as above.
His-tagged human FcγRIIIA (F176) (human), sequence (P08637 17-208 limits assumed): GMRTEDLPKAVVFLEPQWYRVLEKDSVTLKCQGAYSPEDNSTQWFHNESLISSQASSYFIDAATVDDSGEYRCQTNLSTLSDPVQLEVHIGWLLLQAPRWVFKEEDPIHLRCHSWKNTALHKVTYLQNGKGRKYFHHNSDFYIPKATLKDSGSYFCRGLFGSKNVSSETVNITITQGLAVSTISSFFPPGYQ
In assay [9] the target is His-tagged human FcγRIIIA (V176) (human) (UniProt P08637). Described as above.
His-tagged human FcγRIIIA (V176) (human), sequence (P08637 17-208 F176V limits assumed): as the sequence (P08637 17-208 limits assumed) above, with F160V counted along it
In assay [10] the target is His-tagged human FcγRIIIB (human) (UniProt O75015). The description is as above.
His-tagged human FcγRIIIB (human), sequence (O75015 17-200 limits assumed): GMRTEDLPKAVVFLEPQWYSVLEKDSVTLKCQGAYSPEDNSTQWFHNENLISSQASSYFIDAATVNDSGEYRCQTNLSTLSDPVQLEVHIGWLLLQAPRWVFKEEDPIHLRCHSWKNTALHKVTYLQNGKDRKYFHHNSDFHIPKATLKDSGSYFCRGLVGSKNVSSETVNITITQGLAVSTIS
In assay [11] the target is His-tagged human FcγRI (human) (UniProt P12314). In words: SPR (Biacore T200), 25 C, His-tagged FcγRI captured on anti-penta-His chip, antibody injected, 1:1 fit.
His-tagged human FcγRI (human), sequence (P12314 16-288 limits assumed): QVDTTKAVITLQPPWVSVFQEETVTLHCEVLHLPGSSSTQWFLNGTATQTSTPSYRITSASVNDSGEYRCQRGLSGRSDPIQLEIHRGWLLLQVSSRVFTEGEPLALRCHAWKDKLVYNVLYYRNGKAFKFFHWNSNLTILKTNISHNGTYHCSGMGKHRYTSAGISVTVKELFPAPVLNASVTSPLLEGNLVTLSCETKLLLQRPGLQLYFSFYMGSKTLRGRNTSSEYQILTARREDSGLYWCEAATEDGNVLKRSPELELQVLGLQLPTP
The target of assay [12] is His-tagged human FcγRIIA (R131) (human) (UniProt P12318). In words: SPR steady-state, 25 C, His-tagged FcγR captured, antibody injected.
His-tagged human FcγRIIA (R131) (human), sequence (P12318 36-218 H167R limits assumed): as the sequence (P12318 36-218 limits assumed) above, with H132R counted along it
For assay [13], the target named is His-tagged human FcγRIIB (human) (UniProt P31994). The description is as above.
His-tagged human FcγRIIB (human), sequence (P31994 46-217 limits assumed): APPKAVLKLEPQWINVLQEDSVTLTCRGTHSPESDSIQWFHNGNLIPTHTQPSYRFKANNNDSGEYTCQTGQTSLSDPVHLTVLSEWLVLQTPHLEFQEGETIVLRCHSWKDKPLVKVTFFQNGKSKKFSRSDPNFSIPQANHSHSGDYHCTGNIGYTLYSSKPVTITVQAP

His-tagged cynomolgus FcγRIIIA (cynomolgus), sequence (Q8SPW2 17-208 limits assumed): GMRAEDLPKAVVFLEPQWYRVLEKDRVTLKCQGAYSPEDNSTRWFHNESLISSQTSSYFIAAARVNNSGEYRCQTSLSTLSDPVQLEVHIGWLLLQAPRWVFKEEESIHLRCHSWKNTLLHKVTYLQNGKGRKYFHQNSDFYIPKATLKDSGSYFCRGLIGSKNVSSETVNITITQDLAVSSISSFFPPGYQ

For the substance “Control Antibody 1: Monoclonal antibody "OKT-3" against human T-cell surface antigens”, the U937 Cytotoxicity Human T-cells [M] (EC50, calcein release) in [1] is 3.04e-12 M. Besides, the EC50 in assay [2] is 0.000196 µM.
Turning to “Control Antibody 2: Antibody "SP34" reactive against the epsilon chain of the T3 complex on human T lymphocyte cells”, the EC50 in assay [3] is 70.3 pM.
For “wt-IgG1 Isotype Control (from UniProt P01857 1-328) (antibody)”, the Kd worked out at 4.2 µM in assay [4]; 4.2 µM in assay [5]; 0.6 µM in assay [6]; 1.1 µM in assay [7]; 1.3 µM in assay [8]; 1.5 µM in assay [9]. Further, the values for the Kd in assay [10] and in [11] were 2.3 µM and 0.0043 µM, respectively. In assay [11], this substance displayed a T1/2 of 15 min.
With wt-IgG4 CPPC Isotype Control (antibody), the Kd in assay [4] is 19.3 µM; in [5], 9.6 µM; in assay [6], 5.8 µM; in assay [7], 12 µM; in [12], 10 µM; in assay [13] it was 9.8 µM. For the same substance, the Kd in assay [8] was 26 µM; in assay [9], 10 µM; in assay [11], 0.0139 µM. The same substance showed a T1/2 in assay [11] of 5 min. Further, in [11], the koff amounted to 0.00236 s⁻¹. In assay [11], this substance displayed a kon of 171000 M⁻¹ s⁻¹.
